A word on the Kd: it is the equilibrium constant for the complex coming apart. Higher therefore signals weaker binding. What is called koff is the rate constant with which the complex falls apart.

The chains are these.
B1: SEQ ID NO 61 (receptor)
chain: MGHLPKPTLWAEPGSVITMGQPVTLRCQGGQETQEYRLYREKKTAPWITRIPQELVKKGQFPIPSITWEHAGRYRCYYGSDTAGRSESSDPLELVVTGAYIKPTLSAQPSPVVNSGGNVTLQCDSQVAFDGFILCKEGEDEHPQCLNSQPHARGSSRAIFSVGPVSPSRRWWYRCYAYDSNSPYEWSLPSDLLELLVL
notes: mutated soluble two domain ILT-2
B2: SEQ ID NO 63 (receptor)
chain: MGHLPKPTLWAEPGSVITLMQPVTLRCQGGQETQEYRLYREKKTAPWITRIPQELVKKGQFPIPSITWEHAGRYRCYYGSDTAGRSESSDPLELVVTGAYIKPTLSAQPSPVVNSGGNVTLQCDSQVAFDGFILCKEGEDEHPQCLNSQPHARGSSRAIFSVGPVSPSRRWWYRCYAYDSNSPYEWSLPSDLLELLVL
notes: as for B1
B3: SEQ ID NO 70 (receptor)
chain: MGHLPKPTLQAEPGSVITQGSPVTLRCQGGQETQEYRLYREKKTAPWITRIPQELVKKGQFPIPSITWEHAGRYRCVIQRGTAGRSESSDPLELVVTGVYIKPTLSAQPSPVVNSGGNVTLQCDSQVAFDGFILCKEGEDEHPQCLNSQPHARGSSRAIFSVGPVSPSRRWWYRCYAYDSNSPYEWSLPSDLLELLVL
notes: as for B1
B4: SEQ ID NO 71 (receptor)
chain: MGHLPKPTLWAEPGSVITQGSPVTLRCQGGQETQEYRLYREKKTAPWITRIPQELVKKGQFPIPSITWEHAGRYRCYYGSQGGLRSESSDPLELVVTGVYIKPTLSAQPSPVVNSGGNVTLQCDSQVAFDGFILCKEGEDEHPQCLNSQPHARGSSRAIFSVGPVSPSRRWWYRCYAYDSNSPYEWSLPSDLLELLVL
notes: as for B1
B5: SEQ ID NO 78 (receptor)
chain: MGHLPKPTLWAEPGSVITMDQPVTLRCQGGQETQEYRLYREKKTAPWITRIPQELVKKGQFPIPSITWEHAGRYRCYYGSQGGLRSESSDPLELVVTGVYIKPTLSAQPSPVVNSGGNVTLQCDSQVAFDGFILCKEGEDEHPQCLNSQPHARGSSRAIFSVGPVSPGRRWWYRCYAYDSNSPYEWSLPSDLLELLVL
notes: as for B1
B6: SEQ ID NO 77 (receptor)
chain: MGHLPKPTLWAEPGSVITQGSPVTLRCQGGQETQEYRLYREKKTAPWITRIPQELVKKGQFPIPSITWEHAGRYRCMQYTLTAGRSESSDPLELVVTGAYIKPTLSAQPSPVVNSGGNVTLQCDSQVAFDGFILCKEGEDEHPQCLNSQPHARGSSRAIFSVGPVSPSRRWWYRCYAYDSNSPYEWSLPSDLLELLVL
notes: as for B1
B7: SEQ ID NO 69 (receptor)
chain: MGHLPKPTLWAEPGSVITLSQPVTLRCQGGQETQEYRLYREKKTAPWITRIPQELVKKGQFPIPSITWEHAGRYRCYYGSDTAGRSESSDPLELVVTGVYIKPTLSAQPSPVVNSGGNVTLQCDSQVAFDGFILCKEGEDEHPQCLNSQPHARGSSRAIFSVGPVSPSRRWWYRCYAYDSNSPYEWSLPSDLLELLVL
notes: as for B1
B8: SEQ ID NO 64 (receptor)
chain: MGHLPKPTLWAEPGSVITMQRPVTLRCQGGQETQEYRLYRERKTAPWITRIPQELVKKGQFPIPSITWEHAGRYRCYYGSDTAGRSESSDPLELVVTGAYIKPTLSAQPSPVVNSGGNVTLQCDSQVAFDGFILCKEGEDEHPQCLSSQPHARGSSRAIFSVGPVSPSRRWWYRCYAYDSNSPYEWSLPSDLLELLVL
notes: as for B1
B9: SEQ ID NO 68 (receptor)
chain: MGHLPKPTLWAEPGSVITLFQPVTLRCQGGQETQEYRLYREKKTAPWITRIPQELVKKGQFPIPSITWEHAGRYRCYYGSDTAGRSESSDPLELVVTGAYIKPTLSAQPSPVVNSGGNVTLQCDSQVAFDGFILCKEGEDEHPQCLNSQPHARGSSRAIFSVGPVSPSRRWWYRCYAYDSNSPYEWSLPSDLLELLVL
notes: as for B1
B10: SEQ ID NO 62 (receptor)
chain: MGHLPKPTLWAEPGSVITMDQPVTLRCQGGQETQEYRLYREKKTAPWITRIPQELVKKGQFPIPSITWEHAGRYRCYYGSDTAGRSESSDPLELVVTGVYIKPTLSAQPSPVVNSGGNVTLQCDSQVAFDGFILCKEGEDEHPQCLNSQPHARGSSRAIFSVGPVSPGRRWWYRCYAYDSNSPYEWSLPSDLLELLVL
notes: as for B1
B11: SEQ ID NO 65 (receptor)
chain: MGHLPKPTLWAEPGSVITMDQPVTLRCQGGQETQEYRLYREKKTAPWITRIPQELVKKGQFPIPSITWEHAGRYRCYYGSDTSQWSASSDPLELVVTGVYIKPTLSAQPSPVVNSGGNVTLQCDSQVAFDGFILCKEGEDEHPQCLNSQPHARGSSRAIFSVGPVSPSRRWWYRCYAYDSNSPYEWSLPSDLLELLVL
notes: as for B1
B12: SEQ ID NO 76 (receptor)
chain: MGHLPKPTLWAEPGSVITQGSPVTLRCQGGQETQEYRLYREKKTAPWITRIPQELVKKGQFPIPSITWEHAGRYRCYYGTQTAGRSESSDPLELVVTGAYIKPTLSAQPSPVVNSGGNVTLQCDSQVAFDGFILCKEGEDEHPQCLNSQPHARGSSRAIFSVGPVSPSRRWWYRCYAYDSNSPYEWSLPSDLLELLVL
notes: as for B1
B13: SEQ ID NO 72 (receptor)
chain: MGHLPKPTLWAEPGSVITQGSPVTLRCQGGQETQEYRLYREKKTAPWITRIPQELVKKGQFPIPSITWEHAGRYRCYYGTQTAGRSESSDPLELVVTGVYIKPTLSAQPSPVVNSGGNVTLQCDSQVAFDGFILCKEGEDEHPQCLNSQPHARGSSRAIFSVGPVSPSRRWWYRCYAYDSNSPYEWSLPSDLLELLVL
notes: as for B1
B14: SEQ ID NO 74 (receptor)
chain: MGHLPKPTLWAEPGSVITQGSPVTLRCQGGQETQEYRLYREKKTAPWITRIPQELVKKGQFPIPSITWEHAGRYRCYYGSDTSQWSASSDPLELVVTGVYIKPTLSAQPSPVVNSGGNVTLQCDSQVAFDGFILCKEGEDEHPQCLNSQPHARGSSRAIFSVGPVSPSRRWWYRCYAYDSNSPYEWSLPSDLLELLVL
notes: as for B1
B15: SEQ ID NO 75 (receptor)
chain: MGHLPKPTLWAEPGSVITQGSPVTLRCQGGQETQEYRLYREKKTAPWITRIPQELVKKGQFPIPSITWEHAGRYRCYYGSQGGLRSESSDPLELVVTGAYIKPTLSAQPSPVVNSGGNVTLQCDSQVAFDGFILCKEGEDEHPQCLNSQPHARGSSRAIFSVGPVSPSRRWWYRCYAYDSNSPYEWSLPSDLLELLVL
notes: as for B1
B16: SEQ ID NO 73 (receptor)
chain: MGHLPKPTLWAEPGSVITQGSPVTLRCQGGQETQEYRLYREKKTAPWITRIPQELVKKGQFPIPSITWEHAGRYRCMQYTLTAGRSESSDPLELVVTGVYIKPTLSAQPSPVVNSGGNVTLQCDSQVAFDGFILCKEGEDEHPQCLNSQPHARGSSRAIFSVGPVSPSRRWWYRCYAYDSNSPYEWSLPSDLLELLVL
notes: as for B1

In the test the target is T1, HLA-A*0201 loaded with the Carcinoembryonic antigen (CEA)-derived … peptide (biotin on the C-terminal biotinylation tag).
T1 construct: Soluble, biotinylated, immobilised on a streptavidin chip
Put plainly: Biacore SPR. The protocol:
SPR measures changes in refractive index expressed in response units (RU) near a sensor surface within a small flow cell, a principle that can be used to detect receptor ligand interactions and to analyse their affinity and kinetic parameters. The probe flow cells were prepared by immobilising the pMHC complexes in flow cells via biotin-tag binding. The assay was then performed by passing soluble ILT-like molecule over the surfaces of the different flow cells at a constant flow rate, measuring the SPR response in doing so.
For B1, the Kd is at most 1000 nM and the koff is at most 2 s⁻¹.
The corresponding values for B2 are at most 1000 nM and at most 2 s⁻¹.
In turn, B3 came in with a Kd of at most 1000 nM and a koff of at most 2 s⁻¹.
For B4, the Kd is at most 1000 nM and the koff was at most 2 s⁻¹.
The corresponding values for B5 are at most 1000 nM and at most 2 s⁻¹.
The corresponding values for B6 are at most 1000 nM and at most 2 s⁻¹.
In turn, B7 returned a Kd of at most 1000 nM and a koff of at most 2 s⁻¹.
The matching figures for B8: at most 1000 nM and at most 2 s⁻¹.
In turn, B9 returned a Kd of at most 1000 nM and a koff of at most 2 s⁻¹.
The corresponding values for B10 are at most 1000 nM and at most 2 s⁻¹.
Regarding B11, the Kd is at most 1000 nM and the koff is at most 2 s⁻¹.
For B12, the Kd was at most 1000 nM and the koff is at most 2 s⁻¹.
B13 displayed a Kd of at most 1000 nM and a koff of at most 2 s⁻¹.
The matching figures for B14: at most 1000 nM and at most 2 s⁻¹.
The corresponding values for B15 are at most 1000 nM and at most 2 s⁻¹.
The matching figures for B16: at most 1000 nM and at most 2 s⁻¹.

Values taken from patent US20100135997A1 (MEDGENE, published 2010).
